Measured values reported in patent US20210253734A1.

B1: monoclonal antibody IM-CA22 (antibody, V domains shown)
VH: QIQLQQSGPELVKPGTSVKLSCKASGYTFTDYYINWVKQRPGQGLEWIGWIYPGSGNPIYNENFKDKATLTVDTSSTTAYLQLSSLTSEDSAVYFCAREWGCAMDSWGQGTSVTVSS
VL: DIVMTQSPSSLSVSTGEKVTMSCKSSQSLLNSGNQKNYLAWYQQKPGQSPKLLIYGASTRESGVPDRFTGSGSGTEFTLTISSVQAEDLAVYYCQSDYSHPYTFGGGTKLEIK

Tests used:
[1] = target: human Trypsin (Sigma) (human) (UniProt P07477); test: cell-based or functional assay
[2] = target: AS-SPIK (Abnormal Secreted serine protease inhibitor Kazal), purified or partially purified from the medium of S2-3 cells (human) (UniProt P00995); test: cell-based or functional assay

Row | Molecule | inhibition of trypsin digestion of 1 uM BML (Boc-Gln-Ala-Arg-AMC) after 60 minutes, 3 nM AS-SPIK and 2 ng/ml trypsin [1] [%] | restoration of Trypsin activity (inhibition of AS-SPIK activity) at 60 minutes, 1 ug/ml IM-CA22 pre-incubated with 3 nM AS-SPIK [2] [%]
1 | AS-SPIK (Abnormal Secreted serine protease inhibitor Kazal), purified or partially purified from the medium of S2-3 cells (from UniProt P00995 24-79) | 70 | –
2 | B1 | – | > 60
